Assay results as given in publication PMC10977697 (PLOS ONE, 2024).

What was measured:
HtrA1 = molecular target: T1, HtrA1 (human, UniProt Q92743 23-480, biotin on lysines (Sulfo-NHS-LC-biotin) for panning and SPR); experiment: ELISA; settings: one partner purified
T1 construct: also called HtrA1 FL; human full-length HtrA1

[1] = molecular target: T2, Notch2Long (Notch2 EGF6-EGF12) (human, UniProt Q04721 219-418, biotin on the N-terminal Avi tag (enzymatic)); experiment: ELISA; settings: one partner purified
T2 construct: also called N2L protein; hNotch2; not shown: Avi tag, N-terminal, kept
T2 sequence (looked up): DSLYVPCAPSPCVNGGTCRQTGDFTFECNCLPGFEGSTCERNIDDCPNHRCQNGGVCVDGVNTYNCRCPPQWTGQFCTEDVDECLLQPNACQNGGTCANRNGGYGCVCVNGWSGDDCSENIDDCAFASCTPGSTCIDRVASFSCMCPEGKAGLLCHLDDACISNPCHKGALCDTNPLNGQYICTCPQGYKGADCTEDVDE

[2] = molecular target: T3, Notch2NRR (Notch2 NRR domain) (human, UniProt Q04721 1423-1677, biotin on the N-terminal Avi tag (enzymatic)); experiment: ELISA; settings: one partner purified
T3 construct: also called NRR protein; not shown: Avi tag, N-terminal, kept
T3 sequence (looked up): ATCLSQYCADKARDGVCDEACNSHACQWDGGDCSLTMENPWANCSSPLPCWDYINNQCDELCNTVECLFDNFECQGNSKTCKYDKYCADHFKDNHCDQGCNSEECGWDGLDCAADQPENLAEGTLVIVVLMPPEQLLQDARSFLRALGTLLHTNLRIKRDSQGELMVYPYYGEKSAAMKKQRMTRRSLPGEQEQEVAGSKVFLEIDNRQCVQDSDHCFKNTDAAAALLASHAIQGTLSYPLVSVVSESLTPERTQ

[3] = molecular target: T4, Notch2Long (Notch2 EGF6-EGF12) (human, UniProt Q04721 219-418, biotin via the N-terminal Avi tag (enzymatic biotinylation)); experiment: SPR; settings: both partners purified
T4 construct: also called N2L protein; hNotch2; not shown: Avi tag, N-terminal, kept
T4 sequence (looked up): T2 sequence (looked up)

T1 sequence (Q92743 23-480): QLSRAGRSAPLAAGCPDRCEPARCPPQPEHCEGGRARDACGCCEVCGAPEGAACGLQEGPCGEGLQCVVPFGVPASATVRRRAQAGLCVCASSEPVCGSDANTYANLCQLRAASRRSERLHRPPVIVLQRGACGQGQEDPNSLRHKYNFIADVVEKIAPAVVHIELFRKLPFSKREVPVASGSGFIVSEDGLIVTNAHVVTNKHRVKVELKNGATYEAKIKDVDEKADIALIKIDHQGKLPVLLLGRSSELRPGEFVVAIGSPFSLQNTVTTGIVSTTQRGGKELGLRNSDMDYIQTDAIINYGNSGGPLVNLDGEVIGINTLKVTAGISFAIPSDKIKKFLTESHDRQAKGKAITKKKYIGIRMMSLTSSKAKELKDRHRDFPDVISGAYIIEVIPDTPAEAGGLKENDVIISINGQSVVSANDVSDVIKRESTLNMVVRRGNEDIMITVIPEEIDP

GCHRPWWQLWGLCKQDSDCLAGCVCGPNGFCG (designed binder) [HtrA1_EET76 displayed on M13 phage]
ELISA (HtrA1): 1
s/n Ratio (HtrA1): 13.7

GCIKSHLWCPPSDYCLAGCVCEVWIQCG (designed binder) [N2L.EET31.32.21 displayed on M13 phage (p3)]
ELISA [1]: 1.8
s/n Ratio [1]: 9.1

GCIKSHLWCPHGGRCEAGCICEVWIQCG (designed binder) [N2L.EET31.43.30 displayed on M13 phage (p3)]
ELISA [1]: 2.2
s/n Ratio [1]: 10.7

GCIKSHLWCPGKERCLAGCICEIWIQCG (designed binder) [N2L.EET31.32.48 displayed on M13 phage (p3)]
ELISA [1]: 1.9
s/n Ratio [1]: 7.2

WIPCISAALGCSCKNKVCYFLYQICGESCV (designed binder) [HtrA1_CirA38 displayed on M13 phage]
ELISA (HtrA1): 2.1
s/n Ratio (HtrA1): 31.9

GCRPRWGGWHCKQDSDCLAGCVCGPNGFCG (designed binder) [N2N-EET-57 displayed on M13 phage]
ELISA [2]: 3.8
s/n Ratio [2]: 30.9

GCIKSHLWCKQDSDCEAGCICEVWIQCG (designed binder, also called N2L.31.L34.43) [N2L.EET31.43 displayed on M13 phage (p3)]
ELISA [1]: 0.7
s/n Ratio [1]: 5.1

GCGWTLRHCKQDSDCLAGCVCEPKWWCG (designed binder) [N2L.EET03.63]
Kd [3]: 44.8 µM

GCGWTLKHCKQDSDCLAGCVCEPIWWCG (designed binder) [N2L.EET03.30]
Kd [3]: 13.1 µM

GCGWTLWHCKQDSDCLAGCVCEPKWFCG (designed binder) [N2L.EET03.58]
Kd [3]: 8.2 µM

GCGWTLMHCKQDSDCLAGCVCEPIWWCG (designed binder) [N2L.EET03.n5]
Kd [3]: 13.2 µM

GCGWTLRHCKQDSDCLAGCVCEPKWMCG (designed binder) [N2L.EET03.1867]
Kd [3]: 9.5 µM

GCGWTLRHCKQDSDCLAGCVCEPIWWCG (designed binder) [N2L.EET03.18]
Kd [3]: 8.9 µM

GCGWTLRHCKQDSDCLAGCVCEPVWWCG (designed binder) [N2L.EET03.88]
Kd [3]: 8.8 µM

GCGWTLWHCKQDSDCLAGCVCEPKWMCG (designed binder) [N2L.EET03.67]
Kd [3]: 15.4 µM

GCGWTLRHCKQDSDCLAGCVCKPKWTCG (designed binder) [N2L.EET03.34]
Kd [3]: 8.6 µM

GCIKSHLWCPRAEKCLAGCICEVWIQCG (designed binder) [N2L.EET31.32.33 displayed on M13 phage (p3)]
ELISA [1]: 1.9
s/n Ratio [1]: 9.3

GCIKSHLWCDPRVSCEAGCICEVWIQCG (designed binder) [N2L.EET31.43.78 displayed on M13 phage (p3)]
ELISA [1]: 1.9
s/n Ratio [1]: 10.3

GCIKSHLWCDPRKSCEAGCICEVWIQCG (designed binder) [N2L.EET31.43.88 displayed on M13 phage (p3)]
ELISA [1]: 1.9
s/n Ratio [1]: 10.2

ACKGVFDACTWKNWRQSRSRECCPNAVCSDKHKWCKWKL (designed binder, Huwentoxin scaffold) [HtrA1_HwTx69 displayed on M13 phage]
ELISA (HtrA1): 0.9
s/n Ratio (HtrA1): 9.6

GCIKSHLWCPRHEKCLAGCVCEVWIRCG (designed binder) [N2L.EET31.32.29 displayed on M13 phage (p3)]
ELISA [1]: 2
s/n Ratio [1]: 9.3

GCIRSHVWCKQDSDCEAGCICEVWVKCG (designed binder) [N2L.EET31.43.64 displayed on M13 phage (p3)]
ELISA [1]: 2
s/n Ratio [1]: 8.8

GCIKSHLWCDPRKDCEAGCICEVWIQCG (designed binder) [N2L.EET31.43.75 displayed on M13 phage (p3)]
ELISA [1]: 2.1
s/n Ratio [1]: 10.3

GCIKSHLWCPSDERCLAGCVCEVWIQCG (designed binder, also called N2L.31.L2.32) [N2L.EET31.32 displayed on M13 phage (p3)]
ELISA [1]: 0.5
s/n Ratio [1]: 3.7

GCIKSHLWCPRDSDCLAGCVCEVWIQCG (designed binder) [N2L.EET31.32.13 displayed on M13 phage (p3)]
ELISA [1]: 2.2
s/n Ratio [1]: 10.2

GCIRSQLWCPSDERCLAGCVCEVWIKCG (designed binder) [N2L.EET31.32.80 displayed on M13 phage (p3)]
ELISA [1]: 2.1
s/n Ratio [1]: 7.6

GCIKSHLWCPPPRRCEAGCICEVWIQCG (designed binder) [N2L.EET31.43.35 displayed on M13 phage (p3)]
ELISA [1]: 2.1
s/n Ratio [1]: 11.6

ECKGKGAKCSIQWSVYPWKVCCTGSCRSGKC (designed binder, Conotoxin-MVIIA scaffold) [HtrA1_CnTx83 displayed on M13 phage]
ELISA (HtrA1): 1.1
s/n Ratio (HtrA1): 16.1

GCIKSHLWCHPKLDCEAGCICEVWIQCG (designed binder) [N2L.EET31.43.18 displayed on M13 phage (p3)]
ELISA [1]: 2.1
s/n Ratio [1]: 10.2

GCIKSHLWCPKTSDCEAGCICEVWIQCG (designed binder) [N2L.EET31.43.24 displayed on M13 phage (p3)]
ELISA [1]: 2.1
s/n Ratio [1]: 10.5

GCVRSHLWCKQDSDCEAGCICEVWIKCG (designed binder) [N2L.EET31.43.73 displayed on M13 phage (p3)]
ELISA [1]: 2.3
s/n Ratio [1]: 11

GCMPRYGGWHCKQDSDCLAGCVCGPNGFCG (designed binder) [N2N-EET-63 displayed on M13 phage]
ELISA [2]: 1.5
s/n Ratio [2]: 21.3

GCRPRFKGWTCKQDSDCLAGCVCGPNGFCG (designed binder) [N2N-EET-n3 displayed on M13 phage]
ELISA [2]: 2.1
s/n Ratio [2]: 33.1

GCGWTLRHCKQDSDCLAGCVCRPIWYCG (designed binder) [N2L.EET03.10 displayed on M13 phage]
ELISA [1]: 3
s/n Ratio [1]: 48.4

GCIRSHVWCKQDSDCEAGCICEIWIQCG (designed binder) [N2L.EET31.43.43 displayed on M13 phage (p3)]
ELISA [1]: 2
s/n Ratio [1]: 10.2

GCIRSHLWCPPSASCLAGCVCEVWIQCG (designed binder) [N2L.EET31.32.70 displayed on M13 phage (p3)]
ELISA [1]: 1.9
s/n Ratio [1]: 7.3

GCQQRRWGGWQQCKQDSDCLAGCVCGPNGFCG (designed binder) [N2N-EET-33 displayed on M13 phage]
ELISA [2]: 3.6
s/n Ratio [2]: 28.9

GCGQKRMGGWQWCKQDSDCLAGCVCGPNGFCG (designed binder) [N2N-EET-n13 displayed on M13 phage]
ELISA [2]: 3.4
s/n Ratio [2]: 53.9

GCGQQRWGGWPLCKQDSDCLAGCVCGPNGFCG (designed binder) [N2N-EET-45 displayed on M13 phage]
ELISA [2]: 3.5
s/n Ratio [2]: 14.9

WIPCISAALGCSCKNKVCYIFSKHLCGESCV (designed binder) [HtrA1_CirA65 displayed on M13 phage]
ELISA (HtrA1): 2.2
s/n Ratio (HtrA1): 33.9

GCVRSHVWCPSDERCLAGCVCEIWIRCG (designed binder) [N2L.EET31.32.85 displayed on M13 phage (p3)]
ELISA [1]: 2
s/n Ratio [1]: 4.3
